Drawing on article PMC10037447, this text covers stoichiometry N for 1 substance.

Where “and” joins values, the source holds several entries; their conditions need not be identical. Equal entries are not always repeated.

In general, stoichiometry N refers to a count of units in the complex or per binding partner.

The target in the assay is F-type ATP synthase from bovine heart mitochondria (Bos taurus (purified from bovine heart)). Kind of assay: native gel or EMSA; Blue-Native PAGE (3-12% Bis-Tris mini-gels) of F-type ATP synthase re-extracted with 0.5% LMNG from LAiR proteoliposomes (bovine heart lipids) at time points over 5 days of storage on ice at 4 °C.

Consider “F-type ATP synthase from bovine heart mitochondria (complex)”, for which the stoichiometry N is 2 and 4.
